Experimental findings from patent US20180291110A1 are described below.

The target in this test is complement factor C1q (Sigma, C1740) (UniProt P02745). The test can be described thus: flow cytometry, C1q on antibody-coated BT-474 cells. (In general: In flow cytometry, cells or beads pass a laser one at a time.)
Chain of complement factor C1q (Sigma, C1740) (P02745 23-245, chain 1 of 3): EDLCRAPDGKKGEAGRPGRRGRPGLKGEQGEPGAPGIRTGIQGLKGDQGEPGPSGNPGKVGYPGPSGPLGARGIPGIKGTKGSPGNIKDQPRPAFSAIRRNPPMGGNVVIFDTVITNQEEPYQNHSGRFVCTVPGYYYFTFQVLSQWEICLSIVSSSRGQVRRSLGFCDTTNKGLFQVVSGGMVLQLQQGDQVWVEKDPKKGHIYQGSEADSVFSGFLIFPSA
Chain of complement factor C1q (Sigma, C1740) (P02746 28-253, chain 2 of 3, further chain): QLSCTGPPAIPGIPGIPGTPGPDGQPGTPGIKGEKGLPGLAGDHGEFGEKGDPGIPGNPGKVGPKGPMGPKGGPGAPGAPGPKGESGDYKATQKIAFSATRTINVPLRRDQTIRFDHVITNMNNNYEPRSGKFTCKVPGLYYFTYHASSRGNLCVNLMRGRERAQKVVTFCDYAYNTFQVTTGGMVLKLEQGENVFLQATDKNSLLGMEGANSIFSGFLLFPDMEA
Chain of complement factor C1q (Sigma, C1740) (P02747 29-245, chain 3 of 3, further chain): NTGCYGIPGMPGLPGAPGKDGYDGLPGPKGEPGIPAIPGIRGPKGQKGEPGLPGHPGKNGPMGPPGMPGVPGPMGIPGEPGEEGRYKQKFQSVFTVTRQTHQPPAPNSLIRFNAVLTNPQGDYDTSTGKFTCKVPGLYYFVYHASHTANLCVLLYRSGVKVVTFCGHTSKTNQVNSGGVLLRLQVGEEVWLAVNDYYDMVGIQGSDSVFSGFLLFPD

With “combination of trastuzumab and pertuzumab”, the PE-signal (geomean) was determined as 2160.
